From US20080227707A1, “BIOACTIVE PEPTIDES AND UNIQUE IRES ELEMENTS FROM MYELIN PROTEOLIPID PROTEIN PLP/DM20” (WAYNE STATE UNIVERSITY, priority 2002, published 2008) come the findings set out here.

Peptide text beside a SMILES is read from it. * marks the point of attachment. Cbz = O=C(OCc1ccccc1)*

The subject of data set [1] is 293, NT2, and 293-Tet-On cell lines. Put plainly: Proteasome inhibition assay, MG132-induced cell death. In kind it is cell-based, human. The conditions noted are these: 50 μM MG132, 24 hrs. The method, then:
Proteasome inhibition assays were carried out in stably transfected cell lines using MG132 (Z-Leu-Leu-Leucinal)—a potent, cell permeable inhibitor of the 26S proteasomal complex (Calbiochem, San Diego, Calif.). The MG132 concentration in all experiments (50 μM) was sufficient to insure 100% cell death of all 293, NT2, and 293-Tet-On cell lines in 24 hrs.
To confirm that 293 and NT2 cultures undergo apoptosis within 24 hrs post treatment with 50 μM MG132, cells were assayed for poly(ADP-ribose) polymerase (PARP) cleavage by caspase-3. The 293 and NT2cultures were grown in 100 mm dishes to ˜90% confluence and passed at equal density into a six well tray. At 70-80% confluence, wells were treated with 50 μM MG132 in DMEM and harvested for proteins at 0.5 hrs, 1 hr, 2 hrs, 4 hrs, 6 hrs, and 24 hrs after treatment. The PARP cleavage products were resolved on 4% SDS PAGE gels. The Western blots were incubated with an anti-PARP (BIOMOL Research Laboratories) primary antibody diluted 1:2000 in 3% BSA, and a HRP conjugated goat anti-mouse secondary antibody (Amersham) diluted 1:2500 in 3% BSA.

The next data set has as its system human 293 cell line. Put plainly: Colony formation assay after transfection and G418 selection. It is filed as cell-based. The conditions noted are these: 293 cells. The protocol:
Transfections were performed in 100×20 mm dishes using the Profection® Mammalian Transfection System—a calcium phosphate transfection kit (Promega, Madison, Wis.). Cells grown to 50-70% confluence were fed 3 hrs prior to addition of the calcium phosphate/DNA mixture. A standard transfection assay contained 15 μg of plasmid DNA, while double transfections were done with 10 μg of each plasmid (20 μg total). The culture medium was removed 24 hrs post transfection and cells were processed for microscopic analysis or passed for G418 or Hygromycin B selection 48 hrs post transfection.
All constitutive expression cell lines were isolated by selection with the G418 antibiotic. 24 hrs after cell passage (see above), transfected 293 and NT2 cells were treated with 500 μg/mL G418 (Invitrogen Life Technologies) in DMEM. The selection medium was changed every second day for 2-2.5 weeks, during which the majority of cells detach and G418 resistant colonies emerge. Depending upon the number and density of colonies, surviving cells were grown for 3-5 days in G418-free medium prior to subcloning. Once colonies reached the appropriate size, each plate was briefly examined for fluorescence, and colonies with the lowest number of nonfluorescent, contaminating cells were marked for subcloning. […]

In another data set the test system is 293 cells. Put plainly: Viability of PIRP expressing cells during MG132-induced cellular stress and apoptosis (Trypan Blue exclusion). It is filed as cell-based, human. As to conditions: 293 control cells = 100%, not statistically significant, n=2. The protocol: FIGS. 6A-6C are bar graphs showing growth factor activity associated with the PIRP-M and PIRP-L proteins. […] Colony number was determined after calcium phosphate transfection of 293 cells and G418 selection. The control plasmid was pBSII vector comprising the […] but no mammalian selectable marker. The PLP/DM20-GFP Pro-constructs are missing the CMV promoter and the PLP/DM20-GFP M1L vectors contain the Met^1 mutation and are unable to translate the full-length proteolipid proteins (see description of FIGS. 2B-2C). Increase in colony number following PIRP expression was highly stastically significant (Student's t-test). […] Pools of 293 cells derived from the transfectants (see above) were grown in toxic (50 μM) and subtoxic (25 μM) concentrations of MG132 for 24 hrs. Viable cells were identified using Trypan Blue exclusion. […] Subconfluent 293 cultures were treated with CM for 48 hrs and 72 hrs. Total and viable cell numbers were determined using Trypan Blue exclusion and expressed as % of control (293 cells treated with 293 CM) cell number.
Although PIRP expression increased colony number, the biochemical mechanism of this response has yet to be defined. […] After 24 hrs, viable cells were counted (Trypan Blue exclusion) (FIG. 6B).

For the molecule `CC(C)C[C@@H](C=O)NC(=O)[C@H](CC(C)C)NC(=O)[C@H](CC(C)C)NC(=O)OCc1ccccc1` [MG132, Z-Leu-Leu-Leucinal] (Cbz-Leu-Leu-Leu-aldehyde), the cell death in data set [1] is 100%.

With “PIRP-L: ~7 kDa polypeptide translated from Met234 of PLP/DM20 mRNA via IRES; SEQ ID NO:8 (MTFHLFIAAFVGAAATLVSLLTFMIAATYNFAVLKLMGRGTKF; listed as Homo sapiens)”, in the data set on human 293 cell line (p=0.02), the “colony count in PIRP-L transfectants compared to PIRP-M transfectants” value was “increased colony count”. For the same molecule, the “cellular viability (viable cell number), % of control cell lines” value in the data set on 293 cells (MG132-treated, 25 μM and 50 μM, 24 hrs) was “small increase in viability”; in the data set on 293 cells (untreated cells), “not detected”.

B1: PIRP-M: ~10 kDa polypeptide translated from Met205 of PLP/DM20 mRNA via IRES; SEQ ID NO:6 (protein, listed as Homo sapiens)
chain: MYGVLPWNAFPGKVCGSNLLSICKTAEFQMTFHLFIAAFVGAAATLVSLLTFMIAATYNFAVLKLMGRGTKF
B1: in the data set with human 293 cell line (calcium phosphate transfection, G418 selection, colonies grown 2 weeks, vs pBSII PIRP-M control DNA lacking G418 resistance), the “increase in colony number over controls” value was 600-700 fold.
